Consider 2 molecules from patent US20210008207A1 (TECHNISCHE UNIVERSIT T M NCHEN, published 2021).

For assay [1], the target named is T1, recombinant human CEACAM1 N-domain (C1ND; residues 35-142) with C-terminal Strep-Tag II, made in Expi293 cells (human, UniProt P13688 35-142, N-glycosylated (three glycosylation forms beside the non-glycosylated protein)).
T1 construct: range 35-142; also called N-terminal domain of human CEACAM1; huCEACAM1-ND; not shown: C-terminal Strep-Tag II
T1 sequence: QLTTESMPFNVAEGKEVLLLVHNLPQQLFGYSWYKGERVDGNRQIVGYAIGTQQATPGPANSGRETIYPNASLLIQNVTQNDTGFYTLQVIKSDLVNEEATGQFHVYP
Briefly: isothermal titration calorimetry, 25 °C; ITC in solution, folded glycosylated C1ND; stoichiometry, not affinity.

Assay [2] concerns the target T2, E. coli expressed human CEACAM1 N-domain (Ec-C1ND) with C-terminal His6 tag, non-glycosylated (human, UniProt P13688 35-142).
T2 construct: range 35-142; also called non-glycosylated N-terminal domain of human CEACAM1; hC1ND
T2 sequence: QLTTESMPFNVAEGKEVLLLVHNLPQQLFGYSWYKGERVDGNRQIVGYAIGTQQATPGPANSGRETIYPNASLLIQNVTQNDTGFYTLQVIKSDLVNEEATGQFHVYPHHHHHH
Briefly: ITC; 25 µM Ec-C1ND in the cell titrated with 250 µM HopQ^AD, 25 °C.

The target of assay [3] is T1, recombinant human CEACAM1 N-domain …. Briefly: isothermal titration calorimetry, 25 °C; ITC in solution, folded glycosylated C1ND (FIG. 8a). For orientation: ITC needs no label: the signal is the heat of the interaction.
Another assay addresses T3, CEACAM5 (human (species not restated for this …, UniProt P06731)).
T3 sequence: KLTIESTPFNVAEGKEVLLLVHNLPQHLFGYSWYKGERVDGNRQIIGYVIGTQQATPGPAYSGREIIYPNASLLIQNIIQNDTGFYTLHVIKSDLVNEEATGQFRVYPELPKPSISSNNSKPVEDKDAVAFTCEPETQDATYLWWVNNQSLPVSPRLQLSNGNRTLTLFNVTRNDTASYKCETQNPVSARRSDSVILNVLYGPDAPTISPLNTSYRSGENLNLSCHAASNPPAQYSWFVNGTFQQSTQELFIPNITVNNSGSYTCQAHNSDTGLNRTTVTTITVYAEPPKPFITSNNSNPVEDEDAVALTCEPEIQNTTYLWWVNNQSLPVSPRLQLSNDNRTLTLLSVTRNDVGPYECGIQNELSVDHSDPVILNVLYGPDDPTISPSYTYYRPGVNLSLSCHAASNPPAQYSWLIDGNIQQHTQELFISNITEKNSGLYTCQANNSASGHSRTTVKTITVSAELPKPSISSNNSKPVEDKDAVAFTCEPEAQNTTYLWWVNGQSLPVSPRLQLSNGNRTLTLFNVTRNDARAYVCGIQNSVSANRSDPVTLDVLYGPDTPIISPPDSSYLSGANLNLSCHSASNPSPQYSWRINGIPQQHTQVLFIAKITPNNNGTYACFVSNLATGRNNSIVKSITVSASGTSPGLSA
Briefly: ELISA, panel CEACAM5; HopQ fragment titrated [cont.) f].

The next assay concerns the target T4, CEACAM8 (human (species not restated for this …, UniProt P31997)).
T4 sequence: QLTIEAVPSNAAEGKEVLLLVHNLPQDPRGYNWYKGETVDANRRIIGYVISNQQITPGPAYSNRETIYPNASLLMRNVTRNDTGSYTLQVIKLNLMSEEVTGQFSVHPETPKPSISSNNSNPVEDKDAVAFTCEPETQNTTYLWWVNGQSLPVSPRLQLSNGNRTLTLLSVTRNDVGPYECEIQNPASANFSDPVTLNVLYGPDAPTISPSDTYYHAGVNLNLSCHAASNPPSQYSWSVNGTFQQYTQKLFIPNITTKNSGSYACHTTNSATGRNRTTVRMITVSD
Briefly: ELISA, panel CEACAM8; protein titrated [cont.) f].

The target in assay [4] is T1, recombinant human CEACAM1 N-domain …. Briefly: ITC; 25 µM C1ND in the cell titrated with 250 µM HopQ^AD, 25 °C.
Assay [5] shares this target. Briefly: ELISA; C1ND coated, HopQ fragment titrated, α-6×His-HRP detection. For orientation: In an ELISA, binding on a coated surface is turned into a signal by an enzyme label.
Assay [6] has the same target. Briefly: ELISA, C1ND coated, His-tag detected.

B1: HopQ adhesin domain (HopQ^AD), type I HopQ fragment of H. pylori strain G27, residues 37-463 (residu (other)
chain: AVQKVKNADKVQKLSDTYEQLSRLLTNDNGTNSKTSAQAINQAVNNLNERAKTLAGGTTNSPAYQATLLALRSVLGLWNSMGYAVICGGYTKSPGENNQKDFHYTDENGNGTTINCGGSTNSNGTHSYNGTNTLKADKNVSLSIEQYEKIHEAYQILSKALKQAGLAPLNSKGEKLEAHVTTSKYQQDNQTKTTTSVIDTTNDAQNLLTQAQTIVNTLKDYCPILIAKSSSSNGGTNNANTPSWQTAGGGKNSCATFGAEFSAASDMINNAQKIVQETQQLSANQPKNITQPHNLNLNSPSSLTALAQKMLKNAQSQAEILKLANQVESDFNKLSSGHLKDYIGKCDASAISSANMTMQNQKNNWGNGCAGVEETQSLLKTSAADFNNQTPQINQAQNLANTLIQELGNNPFRNMGMIASSTTNNGAHHHHHH
notes: also called HopQ^AD I
By Kd is commonly meant the free concentration of one partner at which half of the binding sites on the other are occupied at equilibrium, for simple one-to-one binding. For the molecule B1, in assay [1], the stoichiometry was 1 HopQ^AD per C1ND. Also, the Kd in assay [2] turned out to be 417 nM; in assay [3] it was 296 nM. Besides, the ΔH in assay [2] was -16.7 kcal/mol; in assay [4] it was -13 kcal/mol. In addition, the ΔS in assay [2] is -26.8 cal/mol/deg; in assay [4] it was -13.7 cal/mol/deg. Further, the figures for the “EC50 (read off the curve)” value (with CEACAM5; in assay [5]) were about 0.04 µg/well and about 0.2 µg/well, respectively. The binding result with CEACAM8 was “no binding (tested: 10 µg/well)”.

B2: HopQ^ADΔID, HopQ^AD in which amino acids 190-218 of the mature protein (the HopQ insertion domain) are replaced by two glycines (other)
chain: AVQKVKNADKVQKLSDTYEQLSRLLTNDNGTNSKTSAQAINQAVNNLNERAKTLAGGTTNSPAYQATLLALRSVLGLWNSMGYAVICGGYTKSPGENNQKDFHYTDENGNGTTINCGGSTNSNGTHSYNGTNTLKADKNVSLSIEQYEKIHEAYQILSKALKQAGLAPLNSKGGGDAQNLLTQAQTIVNTLKDYCPILIAKSSSSNGGTNNANTPSWQTAGGGKNSCATFGAEFSAASDMINNAQKIVQETQQLSANQPKNITQPHNLNLNSPSSLTALAQKMLKNAQSQAEILKLANQVESDFNKLSSGHLKDYIGKCDASAISSANMTMQNQKNNWGNGCAGVEETQSLLKTSAADFNNQTPQINQAQNLANTLIQELGNNPFRNMGMIASSTTNNGAHHHHHH
notes: also called HopQ-ID deletion mutant; mutant HopQ^AD lacking the HopQ-ID
Consider B2, for which the “fold reduction of binding affinity against HopQ^AD” value in assay [6] was about 10 fold. Also, in the assay with CEACAM5, the “EC50 (read off the curve)” value was about 0.08 µg/well. Also, the binding result in the assay with CEACAM8 is given as “no binding (tested: 10 µg/well)”.
